Results published in paper PMC7039211, “Cryo-EM structure of the complete and ligand-saturated insulin receptor ectodomain” (The Journal of Cell Biology, 2019).

Biological target: the molecule itself
Test: cryo-EM structure; ~1.4 µM IR-ECD with ~40 µM insulin (28x molar excess), ~30 min at 4°C, HBS; no symmetry imposed; saturated state, 4.3 Å

B1: human insulin receptor ectodomain protomer IRαβ0 (domain or fragment)
chain 1: HLYPGEVCPGMDIRNNLTRLHELENCSVIEGHLQILLMFKTRPEDFRDLSFPKLIMITDYLLLFRVYGLESLKDLFPNLTVIRGSRLFFNYALVIFEMVHLKELGLYNLMNITRGSVRIEKNNELCYLATIDWSRILDSVEDNYIVLNKDDNEECGDICPGTAKGKTNCPATVINGQFVERCWTHSHCQKVCPTICKSHGCTAEGLCCHSECLGNCSQPDDPTKCVACRNFYLDGRCVETCPPPYYHFQDWRCVNFSFCQDLHHKCKNSRRQGCHQYVIHNNKCIPECPSGYTMNSSNLLCTPCLGPCPKVCHLLEGEKTIDSVTSAQELRGCTVINGSLIINIRGGNNLAAELEANLGLIEEISGYLKIRRSYALVSLSFFRKLRLIRGETLEIGNYSFYALDNQNLRQLWDWSKHNLTITQGKLFFHYNPKLCLSEIHKMEEVSGTKGRQERNDIALKTNGDQASCENELLKFSYIRTSFDKILLRWEPYWPPDFRDLLGFMLFYKEAPYQNVTEFDGQDACGSNSWTVVDIDPPLRSNDPKSQNHPGWLMRGLKPWTQYAIFVKTLVTFSDERRTYGAKSDIIYVQTDATNPSVPLDPISVSNSSSQIILKWKPPSDPNGNITHYLVFWERQAEDSELFELDYCLKGLKLPSRTWSPPFESEDSQKHNQSEYEDSAGECCSCPKTDSQILKELEESSFRKTFEDYLHNVVFVPRPSRKRR
chain 2: SLGDVGNVTVAVPTVAAFPNTSSTSVPTSPEEHRPFEKVVNKESLVISGLRHFTGYRIELQACNQDTPEERCSVAAYVSARTMPEAKADDIVGPVTHEIFENNVVHLMWQEPKEPNGLIVLYEVSYRRYGDEELHLCVSRKHFALERGCRLRGLSPGNYSVRIRATSLAGNGSWTEPTYFYVTDYLDVPSNIAK
modifications: glycosylated | glycosylated
- stoichiometry N: 2
